The values below come from doi:10.1101/2022.01.11.475947.

The target in the assay is Fusion protein of Nipah virus (F-clamp) (Nipah virus). Nature of the assay: SEC.

Fusion protein of Nipah virus (F-clamp) had a stoichiometry N of 3.
